From article PMC10256812

Biological target: T1, FLAG-tagged androgen receptor (AR), P10275
T1 chain: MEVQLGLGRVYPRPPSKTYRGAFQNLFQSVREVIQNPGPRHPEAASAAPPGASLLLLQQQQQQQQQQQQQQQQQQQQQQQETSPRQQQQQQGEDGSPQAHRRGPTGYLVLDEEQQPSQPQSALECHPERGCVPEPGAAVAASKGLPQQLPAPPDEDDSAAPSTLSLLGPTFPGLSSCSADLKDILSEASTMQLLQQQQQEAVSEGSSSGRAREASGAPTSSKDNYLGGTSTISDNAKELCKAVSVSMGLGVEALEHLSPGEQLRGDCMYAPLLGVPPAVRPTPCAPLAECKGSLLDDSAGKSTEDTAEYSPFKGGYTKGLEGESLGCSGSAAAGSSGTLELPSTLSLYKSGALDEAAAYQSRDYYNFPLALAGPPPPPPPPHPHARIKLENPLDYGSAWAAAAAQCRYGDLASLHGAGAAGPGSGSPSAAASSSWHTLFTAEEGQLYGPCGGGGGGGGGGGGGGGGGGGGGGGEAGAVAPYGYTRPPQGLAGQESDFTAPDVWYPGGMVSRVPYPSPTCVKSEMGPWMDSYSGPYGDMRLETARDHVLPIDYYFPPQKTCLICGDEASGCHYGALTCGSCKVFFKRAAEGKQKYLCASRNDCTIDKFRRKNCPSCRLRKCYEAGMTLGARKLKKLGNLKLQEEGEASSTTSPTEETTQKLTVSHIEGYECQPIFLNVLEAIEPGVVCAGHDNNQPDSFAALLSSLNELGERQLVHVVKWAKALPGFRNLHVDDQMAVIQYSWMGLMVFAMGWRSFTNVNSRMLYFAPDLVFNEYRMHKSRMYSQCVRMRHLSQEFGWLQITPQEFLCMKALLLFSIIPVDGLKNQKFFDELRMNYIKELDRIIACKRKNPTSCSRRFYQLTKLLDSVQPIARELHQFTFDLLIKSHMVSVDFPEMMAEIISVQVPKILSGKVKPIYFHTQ
Test: co-immunoprecipitation (Ni-NTA pull-down of His-SREBF1, immunoblot with FLAG antibody), band quantification
Details: chain shown with the change, HEK293T cells

B1: His-tagged SREBF1 (wild type), expressed in HEK293T cells, P36956 Y673A; Y951A (protein)
chain: MDEPPFSEAALEQALGEPCDLDAALLTDIEDMLQLINNQDSDFPGLFDPPYAGSGAGGTDPASPDTSSPGSLSPPPATLSSSLEAFLSGPQAAPSPLSPPQPAPTPLKMYPSMPAFSPGPGIKEESVPLSILQTPTPQPLPGALLPQSFPAPAPPQFSSTPVLGYPSPPGGFSTGSPPGNTQQPLPGLPLASPPGVPPVSLHTQVQSVVPQQLLTVTAAPTAAPVTTTVTSQIQQVPVLLQPHFIKADSLLLTAMKTDGATVKAAGLSPLVSGTTVQTGPLPTLVSGGTILATVPLVVDAEKLPINRLAAGSKAPASAQSRGEKRTAHNAIEKRYRSSINDKIIELKDLVVGTEAKLNKSAVLRKAIDYIRFLQHSNQKLKQENLSLRTAVHKSKSLKDLVSACGSGGNTDVLMEGVKTEVEDTLTPPPSDAGSPFQSSPLSLGSRGSGSGGSGSDSEPDSPVFEDSKAKPEQRPSLHSRGMLDRSRLALCTLVFLCLSCNPLASLLGARGLPSPSDTTSVYHSPGRNVLGTESRDGPGWAQWLLPPVVWLLNGLLVLVSLVLLFVYGEPVTRPHSGPAVYFWRHRKQADLDLARGDFAQAAQQLWLALRALGRPLPTSHLDLACSLLWNLIRHLLQRLWVGRWLAGRAGGLQQDCALRVDASASARDAALVAHKLHQLHTMGKHTGGHLTATNLALSALNLAECAGDAVSVATLAEIYVAAALRVKTSLPRALHFLTRFFLSSARQACLAQSGSVPPAMQWLCHPVGHRFFVDGDWSVLSTPWESLYSLAGNPVDPLAQVTQLFREHLLERALNCVTQPNPSPGSADGDKEFSDALGYLQLLNSCSDAAGAPAYSFSISSSMATTTGVDPVAKWWASLTAVVIHWLRRDEEAAERLCPLVEHLPRVLQESERPLPRAALHSFKAARALLGCAKAESGPASLTICEKASGALQDSLATTPASSSIDKAVQLFLCDLLLVVRTSLWRQQQPPAPAPAAQGTSSRPQASALELRGFQRDLSSLRRLAQSFRPAMRRVFLHEATARLMAGASPTRTHQLLDRSLRRRAGPGGKGGAVAELEPRPTRREHAEALLLASCYLPPGFLSAPGQRVGMLAEAARTLEKLGDRRLLHDCQQMLMRLGGGTTVTSS
response (+ DHT, parent: 0.9): 3.7
response (without DHT, parent: 0.1): 0.3
